# Test results from US20130116182A1, “Factor VIII B Cell Epitope Variants Having Reduced Immunogenicity” (priority 2009, published 2013).
# Biological target: BO2C11 Fab fragment
# Assay: SPR, BO2C11 Fab on chip, 25 C, 1:1 model
Kd,koff,kon,Substance
9.2 pM,9.2e-05 s⁻¹,1e+07 M⁻¹ s⁻¹,FVIII C2 domain protein R2304H (from UniProt P00451 2189-2351)
5.3 pM,9.5e-05 s⁻¹,1.8e+07 M⁻¹ s⁻¹,FVIII C2 domain protein P2300L (from UniProt P00451 2189-2351)
1.9 pM,4.4e-05 s⁻¹,2.3e+07 M⁻¹ s⁻¹,FVIII C2 domain protein L2212A (from UniProt P00451 2189-2351)
2.7 pM,8.6e-05 s⁻¹,3.2e+07 M⁻¹ s⁻¹,FVIII C2 domain protein N2224A (from UniProt P00451 2189-2351)
3.4 pM,6.4e-05 s⁻¹,1.9e+07 M⁻¹ s⁻¹,FVIII C2 domain protein K2227A (from UniProt P00451 2189-2351)
4.9 pM,7.3e-05 s⁻¹,1.5e+07 M⁻¹ s⁻¹,FVIII C2 domain protein H2315A (from UniProt P00451 2189-2351)
2.4 pM,5.7e-05 s⁻¹,2.4e+07 M⁻¹ s⁻¹,FVIII C2 domain protein L2302A (from UniProt P00451 2189-2351)
3 pM,6.8e-05 s⁻¹,2.3e+07 M⁻¹ s⁻¹,FVIII C2 domain protein Q2311A (from UniProt P00451 2189-2351)
1.5 pM,0.00018 s⁻¹,1.2e+08 M⁻¹ s⁻¹,FVIII C2 domain protein Q2270A (from UniProt P00451 2189-2351)
7.7 pM,0.00017 s⁻¹,2.2e+07 M⁻¹ s⁻¹,FVIII C2 domain protein H2269A (from UniProt P00451 2189-2351)
11 pM,8.7e-05 s⁻¹,8.2e+06 M⁻¹ s⁻¹,FVIII C2 domain protein W2313Y (from UniProt P00451 2189-2351)
8.6 pM,0.00019 s⁻¹,2.2e+07 M⁻¹ s⁻¹,FVIII C2 domain protein E2181A (from UniProt P00451 2189-2351)
6.3 pM,3.6e-05 s⁻¹,5.7e+06 M⁻¹ s⁻¹,FVIII C2 domain protein V2223M (from UniProt P00451 2189-2351)
4.2 pM,5.4e-05 s⁻¹,1.3e+07 M⁻¹ s⁻¹,FVIII C2 domain protein T2272A (from UniProt P00451 2189-2351)
15 pM,0.00017 s⁻¹,1.1e+07 M⁻¹ s⁻¹,FVIII C2 domain protein L2273A (from UniProt P00451 2189-2351)
2.6 pM,5.4e-05 s⁻¹,2.1e+07 M⁻¹ s⁻¹,FVIII C2 domain protein E2327A (from UniProt P00451 2189-2351)

Kd,koff,kon,Substance
4.4 pM,6.1e-05 s⁻¹,1.4e+07 M⁻¹ s⁻¹,FVIII C2 domain protein Q2213A (from UniProt P00451 2189-2351)
4.7 pM,9e-05 s⁻¹,1.9e+07 M⁻¹ s⁻¹,FVIII C2 domain protein R2307Q (from UniProt P00451 2189-2351)
5 pM,6e-05 s⁻¹,1.2e+07 M⁻¹ s⁻¹,FVIII C2 domain protein N2277A (from UniProt P00451 2189-2351)
26 pM,0.00019 s⁻¹,7.2e+06 M⁻¹ s⁻¹,FVIII C2 domain protein K2279A (from UniProt P00451 2189-2351)
19 pM,0.00016 s⁻¹,8.4e+06 M⁻¹ s⁻¹,FVIII C2 domain protein A2201P (from UniProt P00451 2189-2351)
1.9 pM,2.9e-05 s⁻¹,1.5e+07 M⁻¹ s⁻¹,FVIII C2 domain protein H2309A (from UniProt P00451 2189-2351)
7.3 pM,0.00011 s⁻¹,1.5e+07 M⁻¹ s⁻¹,FVIII C2 domain protein S2173I (from UniProt P00451 2189-2351)
13 pM,5.9e-05 s⁻¹,4.6e+06 M⁻¹ s⁻¹,FVIII C2 domain protein K2207A (from UniProt P00451 2189-2351)
2.4 pM,3.9e-05 s⁻¹,1.6e+07 M⁻¹ s⁻¹,FVIII C2 domain protein N2225A (from UniProt P00451 2189-2351)
5.8 pM,3.5e-05 s⁻¹,6e+06 M⁻¹ s⁻¹,FVIII C2 domain protein T2202A (from UniProt P00451 2189-2351)
2.9 pM,2e-05 s⁻¹,6.8e+06 M⁻¹ s⁻¹,FVIII C2 domain protein K2227Q (from UniProt P00451 2189-2351)
5.4 pM,3.8e-05 s⁻¹,7.1e+06 M⁻¹ s⁻¹,FVIII C2 domain protein H2211A (from UniProt P00451 2189-2351)
25 pM,0.00032 s⁻¹,1.3e+07 M⁻¹ s⁻¹,FVIII C2 domain protein Q2316A (from UniProt P00451 2189-2351)
6.1 pM,3.7e-05 s⁻¹,6.1e+06 M⁻¹ s⁻¹,FVIII C2 domain protein K2249A (from UniProt P00451 2189-2351)
5.3 pM,3.9e-05 s⁻¹,7.4e+06 M⁻¹ s⁻¹,FVIII C2 domain protein Q2222A (from UniProt P00451 2189-2351)
9.8 pM,5.2e-05 s⁻¹,5.3e+06 M⁻¹ s⁻¹,FVIII C2 domain protein T2253A (from UniProt P00451 2189-2351)
